# In patent publication US20210130420A1, “RECOMBINANT BINDING PROTEINS TARGETING HER2 AND SERUM ALBUMIN, AND THEIR USES” (Molecular Partners AG, priority 2016, published 2021):
# B1: Protein #21: SEQ ID NO: 21; HER2 binding domains (SEQ ID NOs: 16, 17) flanked by two serum albumin binding domains (SEQ ID NO: 14), SEQ ID NO: 9 linkers (protein)
# chain: GSDLGKKLLEAARAGQDDEVRELLKAGADVNAKDYFSHTPLHLAARNGHLKIVEVLLKAGADVNAKDFAGKTPLHLAANEGHLEIVEVLLKAGADVNAQDIFGKTPADIAADAGHEDIAEVLQKAAGSPTPTPTTPTPTPTTPTPTPTGSDLGIKLLFAAAKGQDDEVRELLKAGADVNAKDFQGVTPLHIAAQSGHLEIVEVLLKAGADVNAKDVTGDTPLHLAAQHGHLEIVEVLLKAGADVNAQDERGWTPADLAADWGHEDIAEVLQKAAGSPTPTPTTPTPTPTTPTPTPTGSDLGKKLLEAARAGQDDEVRELLKAGADVNAKDEYGLTPLYLATAHGHLEIVEVLLKAGADVNAVDAIGFTPLHLAAFIGHLEIAEVLLKAGADVNAQDKFGKTPADIAAGAGNEDIAEVLQKAAGSPTPTPTTPTPTPTTPTPTPTGSDLGKKLLEAARAGQDDEVRELLKAGADVNAKDYFSHTPLHLAARNGHLKIVEVLLKAGADVNAKDFAGKTPLHLAANEGHLEIVEVLLKAGADVNAQDIFGKTPADIAADAGHEDIAEVLQKAA
# modifications: Protein comprising four designed ankyrin repeat domains
# How the values were obtained:
# [1] = Storage stability in PBS analysed by SDS-PAGE; format: physicochemical; conditions: SDS-PAGE after 1 month at 40° C. in glass vials in PBS at 10 mg/ml
# Procedure: “Improved storage stability” in the context of the present invention means the reduction of the amounts of a degradation band, preferably the reduction of the amount of degradation products, as detected by a Coomassie-stained SDS-PAGE occurring after storage at 40° C. for 1 month at 10 mg/ml in PBS, by at least 5%, 10%, 15%, 20%, 25%, 30%, 35%, 40%, 45%, 50%, or 50%. Methods to assess storage stability by SDS-PAGE are well known to the person skilled in the art. Examples of designed ankyrin repeat domains and recombinant binding proteins with improved storage stability properties are given in Examples 2 and 3.
# Protein #13-His, Protein #14-His and Protein #15-His were prepared as described in Example 1, and samples were concentrated to 10 mg/ml in PBS. Protein #14-His and Protein #15-His where then stored for 1 month at −80° C. or at 40° C. in glass vials, followed by analysis on SDS 15% PAGE. […] These findings illustrate that Protein #14-His has improved storage stability compared to Proteins #13-His and Protein #15-His.
# A storage stability improvement is also observed, when testing the storage stability of Protein #21 and Protein #22 (recombinant binding proteins consisting of the amino acid sequences corresponding to SEQ ID NOs: 21 and 22, respectively). Protein #21 and Protein #22 are prepared as described in Example 1, samples are concentrated to 10 mg/ml in PBS and stored for 1 month at −80° C. in or at 40° C. in glass vials, followed by analysis on standard size-exclusion chromatography.
# [2] = target: human HER2 and human serum albumin (Homo sapiens, UniProt P02768+P04626); assay: Surface plasmon resonance simultaneous binding
# [3] = tested on: GXA3039; assay: Gastric cancer patient derived tumor xenograft mouse model GXA3039; format: in vivo; conditions: Protein #21 60 mg/kg, antibodies 10 mg/kg, every three days for 6 times
# Procedure: Further, Protein #21 was expressed and purified as described in Example 1. […] All groups were dosed every three days for 6 times. Briefly, tumor fragments were obtained from xenografts in serial passage in nude mice. After removal from donor mice, tumors were cut into fragments (4-5 mm diameter) for subcutaneous implantation. Mice were randomized into groups when tumors reached a volume of approximately 100-120 mm^3. The day of randomization and treatment initiation is designated as day 0 in each experiment. Tumor growth was monitored by two-dimensional measurement with a caliper on the day of randomization and then twice weekly. Relative volumes of individual tumors (individual RTVs) for Day x were calculated by dividing the individual tumor volume on Day x (Tx) by the individual volume of the same tumor on Day 0 (TO) multiplied by 100%. Tumor inhibition for a particular day (T/C in %) was calculated from the ratio of the median RTV values of test versus control groups multiplied by 100%.
# [4] = target: human serum albumin (Homo sapiens, UniProt P02768); assay: Size exclusion chromatography coupled to static light scattering with human serum albumin; format: binding; conditions: 30 μM Protein #21, 60 μM human serum albumin, 1:2 mixture in PBS
# Procedure: Protein #21 was expressed and purified as described in Example 1. Size exclusion chromatography coupled to static light scattering (Superdex 200 10/300GL (GE Healthcare), Agilent 1200 (Life Technologies), Wyatt Optilab Trex (RI) and MiniDawnTreos (MALS)) was performed using 30 μM Protein #21, 60 μM human serum albumin (CSL Behring 20% solution was used to purify the monomeric fraction of human serum albumin by size exclusion chromatography on a Superdex 200 26/60 column (GE Healthcare)), or a 1:2 mixture of the two, in PBS.
# [5] = Thermal stability by circular dichroism; format: physicochemical; conditions: 0.4 μM in PBS
# Procedure: Protein #21 was expressed and purified as described in Example 1. Thermal stability was evaluated using circular dichroism using a Jasco J-815 CD spectrometer in a nitrogen atmosphere (3 L/min). Protein #21 at 0.4 μM in PBS in 117.100F-QS cuvettes (Hellma, d=1 cm) with in-solution temperature control sensors were measured, heating from 20° C. to 95° C. (below 45° C.: +3° C./min; above 45° C.: +1° C./min recording the signal at 222 nm, a 1 min delay at 95° C. and a subsequent cooling phase (inverted program compared to heating phase). The CD signal was normalized to mean residual ellipticity (MRE) with the unit deg cm2 dmol-1. Additionally, the far-UV CD spectrum was recorded.
# [6] = tested on: MAPK1 and MAPK3; assay: Phospho-proteome mass spectrometry; format: cell-based; conditions: 100 nM, 18 hours
# Source text: Protein #21 was expressed and purified as described in Example 1. […] Cells were then subjected to a phospho-proteome mass-spectrometry analysis as described by Britton, D., et al. (Britton, D., Zen, Y., Quaglia, A., Selzer, S., Mitra, VI., Lössner, C., Jung, S., Bohm, G., Schmid, P., Prefot, P., Hoehle, C., Koncarevic, S., Gee, J., Nicholson, R., Ward, M., Castellano, L., Stebbing, J., Zucht, H. D., Sarker, D., Heaton, N., and Pike, I., 2014. PLOS One 9 (3), e90948). […] At other phosphorylation sites, phosphorylation is increased (772).
# [7] = tested on: HER3; assay: Phosphorylation state ELISA, BT474 cells; format: cell-based, human; conditions: 100 nM, 18 hours
# [8] = target: HER2 (Homo sapiens, UniProt P04626); assay: Phospho-proteome mass spectrometry of BT474 cells; format: cell-based; parameters: host or cells: BT474; conditions: 100 nM, 18 hours
# Source text: Protein #21 was expressed and purified as described in Example 1. […] Cells were then subjected to a phospho-proteome mass-spectrometry analysis as described by Britton, D., et al. (Britton, D., Zen, Y., Quaglia, A., Selzer, S., Mitra, VI., Lössner, C., Jung, S., Bohm, G., Schmid, P., Prefot, P., Hoehle, C., Koncarevic, S., Gee, J., Nicholson, R., Ward, M., Castellano, L., Stebbing, J., Zucht, H. D., Sarker, D., Heaton, N., and Pike, I., 2014. PLOS One 9 (3), e90948).
molecule,measurement,setting,value
B1,amounts of degradation products compared to Protein #22,[1],lower amounts of degradation products
same,simultaneous binding of human HER2 and human serum albumin,[2],can bind human HER2 and human serum albumin simultaneously
same,"inhibition of tumor growth, first experiment","[3]; GXA3039, FIG. 4C",strong inhibition of tumor growth
same,"inhibition of tumor growth, second experiment","[3]; GXA3039, FIG. 4D",strong inhibition of tumor growth
same,simultaneous binding of two serum albumin molecules,[4],can bind two serum albumin molecules simultaneously
same,temperature above which loss of signal at 222 nm is detected,[5],above 78 °C
same,phosphorylated peptides that map to MAPK1 and MAPK3,[6],considerably downregulated
same,HER3 Pan-Phospho-Tyrosine,[7],0.45 fold change to PBS
same,HER2 S1073/S1078/S1083 phosphorylation,[8],0.35 fold change to PBS
same,HER2 S1174 phosphorylation,[8],0.59 fold change to PBS
same,HER2 T772 phosphorylation,[8],10.27 fold change to PBS
same,HER2 T1172/S1174 phosphorylation,[8],0.44 fold change to PBS
same,HER2 T1240 phosphorylation,[8],0.09 fold change to PBS
same,HER2 Y1139/S1151 phosphorylation,[8],0.88 fold change to PBS
